Laboratory results published in publication PMC8390549.

Target: N-terminal DYKDDDK-tagged mouse Tim-3 (T-cell immunoglobulin mucin domain-3) with the VN-173 portion of the Venus fluorophore at the C terminus (Tim-3-VN) (UniProt Q8VIM0)
Assay: bimolecular fluorescence complementation (BiFC)
Details: HeLa CD4+ cells, fixed 24 h after transfection; BiFC intensity normalized to Nef expression (HA staining); 3 independent repeats, 30 cells total; parent: est. 1.1; read off a plot

Sequence of UniProt Q8VIM0 (Q8VIM0 20-281): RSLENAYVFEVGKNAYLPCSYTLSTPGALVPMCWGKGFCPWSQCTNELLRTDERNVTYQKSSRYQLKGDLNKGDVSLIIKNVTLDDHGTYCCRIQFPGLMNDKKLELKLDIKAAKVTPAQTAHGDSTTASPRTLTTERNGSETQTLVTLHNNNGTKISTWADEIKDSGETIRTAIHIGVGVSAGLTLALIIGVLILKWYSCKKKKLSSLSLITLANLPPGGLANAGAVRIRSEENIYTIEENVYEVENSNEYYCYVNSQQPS

With “HIV-1 NL4-3 Nef fused to a C-terminal HA tag and the VC-155 portion of the Venus fluorophore (Nef-HA-VC) L164A; L165A” the response was 0.42 BiFC/Nef IF.
